One molecule from paper PMC6185872 (Cell Host & Microbe, 2018) can be followed below.

One assay concerns the target T1, B41 SOSIP.664 v4.2 (HIV-1 (clade B B41)).
T1 construct: copies: 3 + 3
Put plainly: cryo-EM structure. As to conditions: both partners purified.

In assay [1] the target is T2, sCD4 D1D2 (domains 1 and 2; residues 1-186 of mature CD4).
T2 construct: also called soluble CD4; source: HEK293-6E, transient transfection, purified (Ni-NTA, SEC)
In words: cryo-EM structure. As to conditions: both partners purified.

B1: 21c Fab (Fab, V domains shown)
VH: QVQVVQSGAEVRKPGASVKVSCKVSGFTLTGLSIHWVRQAPGKGLEWMGGFGPEENEIIYAQKFQGRVSMTEDTSTNTAYMELSSLRSEDTAVYYCATGGNYYNLWTGYYPLAYWGQGTLVTVSS
VL: QSVLTQPPSVSAAPGQKVTISCSGSSSNIGKNYVSWYQQLPGAAPKLLIFDDTQRPSGIPDRFSGSKSGTSATLAITGLQTGDEADYYCGTWDSSLSTGQLFGGGTKLTVL
notes: also called CD4i antibody 21c
Turning to B1, the “stoichiometry N” value in the assay with B41 SOSIP.664 v4.2 came out at 3 copies per Env trimer. Also, the binding result in assay [1] is reported as “binds”.

Broadly, the stoichiometry N is a count of units in the complex or per binding partner.
